Laboratory results taken from patent US20040002128.

T1: sensor A, polyhistidine-tagged recombinant FRET probe (bacterial version) (not fully specified)
T1 chain: SGLRSGGDEVDGGSNS

T2: AC-DEVD-CHO
T2 chain: DEVD

T3: sensor B, polyhistidine-tagged recombinant FRET probe (bacterial version) (not fully specified)
T3 chain: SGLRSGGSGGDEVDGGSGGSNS

T4: CFP-YFP fusion protein, polyhistidine-tagged (bacterial version, no caspase substrate sequence)
T4 chain: SGLRSRAQASNS

B1: caspase-3 (protein)
chain: SGISLDNSYKMDYPEMGLCIIINNKNFHKSTGMTSRSGTDVDAANLRETFRNLKYEVRNKNDLTREEIVELMRDVSKEDHSKRSSFVCVLLSHGEEGIIFGTNGPVDLKKITNFFRGDRCRSLTGKPKLFIIQACRGTELDCGIETDSGVDDDMACHKIPVEADFLYAYSTAPGYYSWRNSKDGSWFIQSLCAMLKQYADKLEFMHILTRVNRKVATEFESFSFDATFHAKKQIPCIVSMLTKELYFYH
B2: caspase-8 (protein)
chain: SESQTLDKVYQMKSKPRGYCLIINNHNFAKAREKVPKLHSIRDRNGTHLDAGALTTTFEELHFEIKPHDDCTVEQIYEILKIYQLMDHSNMDCFICCILSHGDKGIIYGTDGQEAPIYELTSQFTGLKCPSLAGKPKVFFIQACQGDNYQKGIPVETDSEEQPYLEMDLSSPQTRYIPDEADFLLGMATVNNCVSYRNPAEGTWYIQSLCQSLRERCPRGDDILTILTEVNYEVSNKDDKKNMGKQMPQPTFTLRKKLVFPSD

Columns and labels:
[1] = molecular target: T1, sensor A, polyhistidine-tagged …
AC-DEVD-CHO = molecular target: T2, AC-DEVD-CHO
[2] = molecular target: T3, sensor B, polyhistidine-tagged …
[3] = molecular target: T4, CFP-YFP fusion protein, …
[4] = molecular target: sensor C8A, polyhistidine-tagged
[5] = molecular target: sensor C8, polyhistidine-tagged

Protein | cleavage, Western blot [1] | decrease of the emission ratio of YFP/CFP [1] | dosage-dependent caspase-3 cleavage assay, normalized emission ratio (YFP/CFP) [1] | emission ratio of YFP/CFP before and after caspase-3 [1] | cleavage of sensor A by caspase-3, Western blot (AC-DEVD-CHO) | cleavage, Western blot [2] | decrease of the emission ratio of YFP/CFP [2] | dosage-dependent caspase-3 cleavage assay, normalized emission ratio (YFP/CFP) [2] | emission ratio of YFP/CFP before and after caspase-3 [2] | cleavage, Western blot [3] | emission spectrum after caspase-3 [3] | caspase-8 concentration that reduces the FRET effect by 50% (sensor 22.45 nM, one hour) [4] | cleavage, Western blot [4] | fraction of the sensor cleaved, band intensity on Western blot, caspase-8 216 nM, one hour [4] | caspase-8 concentration that reduces the FRET effect by 50% (sensor 22.45 nM, one hour) [5] | caspase-8 needed for 50% FRET reduction, against sensor C8A [5] | cleavage, Western blot [5] | fraction of the sensor cleaved, band intensity on Western blot, caspase-8 216 nM, one hour [5]
B1 | caspase-3 can cleave almost all the sensor A and sensor B protein | decreased by 4-5 fold | both FRET probes were highly sensitive to caspase-3, although sensor A appeared to be slightly more sensitive than sensor B | from 3.02 to 0.59 for sensor A | In the presence of caspase-3 inhibitor (AC-DEVD-CHO), no FRET probe (sensor A) was cleaved | caspase-3 can cleave almost all the sensor A and sensor B protein | decreased by 4-5 fold | both FRET probes were highly sensitive to caspase-3, although sensor A appeared to be slightly more sensitive than sensor B | from 2.76 to 0.59 for sensor B | no cleavage was seen for CFP-YFP fusion protein under the same condition | no change for the emission spectrum was observed from the CFP-YFP fusion protein which lacks the substrate sequence |  |  |  |  |  |  | 
B2 |  |  |  |  |  |  |  |  |  |  |  | about 0.71 nM of caspase-8 was needed to reduce 50% of the FRET effect for sensor C8A | both sensor C8 and C8A could be cleaved by caspase-8 to release a CFP and a YFP molecule | 95% of the sensor C8A protein was cleaved after incubation with caspase-8 (216 nM) for one hour | about 5-fold more caspase-8 (3.4 nM) was required to produce the same FRET reduction for sensor C8 | about 5-fold more caspase-8 (3.4 nM) was required to produce the same FRET reduction for sensor C8 | both sensor C8 and C8A could be cleaved by caspase-8 to release a CFP and a YFP molecule | only 58% of the sensor C8 protein was cleaved under the same condition
